B1: CTX-1167 (peptide)
peptide: Ac-[Nle][dA]H[Phe(4-I)]R[dW]DRFG-OH
SMILES: CCCC[C@H](NC(C)=O)C(=O)N[C@H](C)C(=O)N[C@@H](Cc1c[nH]cn1)C(=O)N[C@@H](Cc1ccc(I)cc1)C(=O)N[C@@H](CCCNC(=N)N)C(=O)N[C@H](Cc1c[nH]c2ccccc12)C(=O)N[C@@H](CC(=O)O)C(=O)N[C@@H](CCCNC(=N)N)C(=O)N[C@@H](Cc1ccccc1)C(=O)NCC(=O)O
B2: CTX-1103 (peptide)
peptide: YVXAHFRWDRFG
modifications: Nle at 3; D-Ala at 4; D-Trp at 8
B3: CTX-2122 (peptide)
peptide: YVXAHFRWDRFG
modifications: Nle at 3; D-Ala at 4; Phe(4-I) at 6; D-Trp at 8
B4: CTX-1159 (peptide)
peptide: Ac-[Nle][dA]HFR[dW]DR[dF]-NH2
SMILES: CCCC[C@H](NC(C)=O)C(=O)N[C@H](C)C(=O)N[C@@H](Cc1c[nH]cn1)C(=O)N[C@@H](Cc1ccccc1)C(=O)N[C@@H](CCCNC(=N)N)C(=O)N[C@H](Cc1c[nH]c2ccccc12)C(=O)N[C@@H](CC(=O)O)C(=O)N[C@@H](CCCNC(=N)N)C(=O)N[C@H](Cc1ccccc1)C(N)=O
B5: CTX-1127 (peptide)
peptide: YVXAHFRWDRFG
modifications: Nle at 3; D-Ala at 4; D-Trp at 8; D-Phe at 11
B6: CTX-1108 (peptide)
peptide: H-YV[Nle][dA]HFR[dW]D-NH2
SMILES: CCCC[C@H](NC(=O)[C@@H](NC(=O)[C@@H](N)Cc1ccc(O)cc1)C(C)C)C(=O)N[C@H](C)C(=O)N[C@@H](Cc1c[nH]cn1)C(=O)N[C@@H](Cc1ccccc1)C(=O)N[C@@H](CCCNC(=N)N)C(=O)N[C@H](Cc1c[nH]c2ccccc12)C(=O)N[C@@H](CC(=O)O)C(N)=O
B7: CTX-1126 (peptide)
peptide: YVXAHFRWDRFG
modifications: Nle at 3; D-Ala at 4; D-Trp at 8; D-Arg at 10
B8: CTX-1144 (peptide)
peptide: Ac-[Nle][dAbu]HFR[dW]DRFG-OH
SMILES: CCCC[C@H](NC(C)=O)C(=O)N[C@H](CC)C(=O)N[C@@H](Cc1c[nH]cn1)C(=O)N[C@@H](Cc1ccccc1)C(=O)N[C@@H](CCCNC(=N)N)C(=O)N[C@H](Cc1c[nH]c2ccccc12)C(=O)N[C@@H](CC(=O)O)C(=O)N[C@@H](CCCNC(=N)N)C(=O)N[C@@H](Cc1ccccc1)C(=O)NCC(=O)O
B9: CTX-1145 (peptide)
peptide: Ac-[Nle][dA]HFR[dW]DR[dF]G-OH
SMILES: CCCC[C@H](NC(C)=O)C(=O)N[C@H](C)C(=O)N[C@@H](Cc1c[nH]cn1)C(=O)N[C@@H](Cc1ccccc1)C(=O)N[C@@H](CCCNC(=N)N)C(=O)N[C@H](Cc1c[nH]c2ccccc12)C(=O)N[C@@H](CC(=O)O)C(=O)N[C@@H](CCCNC(=N)N)C(=O)N[C@H](Cc1ccccc1)C(=O)NCC(=O)O
B10: CTX-1143 (peptide)
peptide: Ac-[Nle][Aib]HFR[dW]DRFG-OH
SMILES: CCCC[C@H](NC(C)=O)C(=O)NC(C)(C)C(=O)N[C@@H](Cc1c[nH]cn1)C(=O)N[C@@H](Cc1ccccc1)C(=O)N[C@@H](CCCNC(=N)N)C(=O)N[C@H](Cc1c[nH]c2ccccc12)C(=O)N[C@@H](CC(=O)O)C(=O)N[C@@H](CCCNC(=N)N)C(=O)N[C@@H](Cc1ccccc1)C(=O)NCC(=O)O
B11: CTX-1142 (peptide)
peptide: H-[dY]V[Nle][dA]HFR[dW]D-NH2
SMILES: CCCC[C@H](NC(=O)[C@@H](NC(=O)[C@H](N)Cc1ccc(O)cc1)C(C)C)C(=O)N[C@H](C)C(=O)N[C@@H](Cc1c[nH]cn1)C(=O)N[C@@H](Cc1ccccc1)C(=O)N[C@@H](CCCNC(=N)N)C(=O)N[C@H](Cc1c[nH]c2ccccc12)C(=O)N[C@@H](CC(=O)O)C(N)=O
B12: CTX-1169 (peptide)
peptide: Ac-[Nle][dA]H[Phe(4-I)]R[dW]DRF-NH2
SMILES: CCCC[C@H](NC(C)=O)C(=O)N[C@H](C)C(=O)N[C@@H](Cc1c[nH]cn1)C(=O)N[C@@H](Cc1ccc(I)cc1)C(=O)N[C@@H](CCCNC(=N)N)C(=O)N[C@H](Cc1c[nH]c2ccccc12)C(=O)N[C@@H](CC(=O)O)C(=O)N[C@@H](CCCNC(=N)N)C(=O)N[C@@H](Cc1ccccc1)C(N)=O
B13: CTX-1160 (peptide)
peptide: Ac-[Nle][dA]HFR[dW]DR[dF]K-OH
SMILES: CCCC[C@H](NC(C)=O)C(=O)N[C@H](C)C(=O)N[C@@H](Cc1c[nH]cn1)C(=O)N[C@@H](Cc1ccccc1)C(=O)N[C@@H](CCCNC(=N)N)C(=O)N[C@H](Cc1c[nH]c2ccccc12)C(=O)N[C@@H](CC(=O)O)C(=O)N[C@@H](CCCNC(=N)N)C(=O)N[C@H](Cc1ccccc1)C(=O)N[C@@H](CCCCN)C(=O)O
B14: CTX-1170 (peptide)
peptide: Ac-[Nle][dA]H[Phe(4-I)]R[dW]DR-NH2
SMILES: CCCC[C@H](NC(C)=O)C(=O)N[C@H](C)C(=O)N[C@@H](Cc1c[nH]cn1)C(=O)N[C@@H](Cc1ccc(I)cc1)C(=O)N[C@@H](CCCNC(=N)N)C(=O)N[C@H](Cc1c[nH]c2ccccc12)C(=O)N[C@@H](CC(=O)O)C(=O)N[C@@H](CCCNC(=N)N)C(N)=O
B15: CTX-1141 (peptide)
peptide: H-[NMeY]V[Nle][dA]HFR[dW]D-NH2
SMILES: CCCC[C@H](NC(=O)[C@@H](NC(=O)[C@H](Cc1ccc(O)cc1)NC)C(C)C)C(=O)N[C@H](C)C(=O)N[C@@H](Cc1c[nH]cn1)C(=O)N[C@@H](Cc1ccccc1)C(=O)N[C@@H](CCCNC(=N)N)C(=O)N[C@H](Cc1c[nH]c2ccccc12)C(=O)N[C@@H](CC(=O)O)C(N)=O
B16: CTX-2120 (peptide)
peptide: YVXAHFRWDRFG
modifications: Nle at 3; D-Ala at 4; Phe(4-Br) at 6; D-Trp at 8
B17: CTX-1163 (peptide)
peptide: Ac-[Nle][dA]HFR[dW]DR-NH2
SMILES: CCCC[C@H](NC(C)=O)C(=O)N[C@H](C)C(=O)N[C@@H](Cc1c[nH]cn1)C(=O)N[C@@H](Cc1ccccc1)C(=O)N[C@@H](CCCNC(=N)N)C(=O)N[C@H](Cc1c[nH]c2ccccc12)C(=O)N[C@@H](CC(=O)O)C(=O)N[C@@H](CCCNC(=N)N)C(N)=O
B18: CTX-1105 (peptide)
peptide: H-YVEGHFR[dW]DRFG-NH2
SMILES: CC(C)[C@H](NC(=O)[C@@H](N)Cc1ccc(O)cc1)C(=O)N[C@@H](CCC(=O)O)C(=O)NCC(=O)N[C@@H](Cc1c[nH]cn1)C(=O)N[C@@H](Cc1ccccc1)C(=O)N[C@@H](CCCNC(=N)N)C(=O)N[C@H](Cc1c[nH]c2ccccc12)C(=O)N[C@@H](CC(=O)O)C(=O)N[C@@H](CCCNC(=N)N)C(=O)N[C@@H](Cc1ccccc1)C(=O)NCC(N)=O
B19: CTX-1130 (peptide)
peptide: H-YV[Nle][Aib]HFR[dW]D-NH2
SMILES: CCCC[C@H](NC(=O)[C@@H](NC(=O)[C@@H](N)Cc1ccc(O)cc1)C(C)C)C(=O)NC(C)(C)C(=O)N[C@@H](Cc1c[nH]cn1)C(=O)N[C@@H](Cc1ccccc1)C(=O)N[C@@H](CCCNC(=N)N)C(=O)N[C@H](Cc1c[nH]c2ccccc12)C(=O)N[C@@H](CC(=O)O)C(N)=O
B20: CTX-1158 (peptide)
peptide: Ac-[Nle][dA]HFR[dW]DRF-NH2
SMILES: CCCC[C@H](NC(C)=O)C(=O)N[C@H](C)C(=O)N[C@@H](Cc1c[nH]cn1)C(=O)N[C@@H](Cc1ccccc1)C(=O)N[C@@H](CCCNC(=N)N)C(=O)N[C@H](Cc1c[nH]c2ccccc12)C(=O)N[C@@H](CC(=O)O)C(=O)N[C@@H](CCCNC(=N)N)C(=O)N[C@@H](Cc1ccccc1)C(N)=O
B21: CTX-1164 (peptide)
peptide: Ac-[Nle][dA]HFR[dW]GKPV-NH2
SMILES: CCCC[C@H](NC(C)=O)C(=O)N[C@H](C)C(=O)N[C@@H](Cc1c[nH]cn1)C(=O)N[C@@H](Cc1ccccc1)C(=O)N[C@@H](CCCNC(=N)N)C(=O)N[C@H](Cc1c[nH]c2ccccc12)C(=O)NCC(=O)N[C@@H](CCCCN)C(=O)N1CCC[C@H]1C(=O)N[C@H](C(N)=O)C(C)C
B22: CTX-2121 (peptide)
peptide: YVXAHFRWDRFG
modifications: Nle at 3; D-Ala at 4; Phe(4-Cl) at 6; D-Trp at 8

Non-standard residues stand in square brackets, D forms with d. Phe(4-I) = N[C@@H](Cc1ccc(I)cc1)C(=O)O; NMeY = CN[C@@H](Cc1ccc(O)cc1)C(=O)O; Nle = CCCC[C@H](N)C(=O)O; dAbu = CC[C@@H](N)C(=O)O; Aib = CC(C)(N)C(=O)O

Consider 22 molecules from patent US20240287154A1, “MC3R AGONIST PEPTIDES” (The Regents of the University of Michigan, priority 2021, published 2024).

Sequence of human MC3R (P41968 whole entry): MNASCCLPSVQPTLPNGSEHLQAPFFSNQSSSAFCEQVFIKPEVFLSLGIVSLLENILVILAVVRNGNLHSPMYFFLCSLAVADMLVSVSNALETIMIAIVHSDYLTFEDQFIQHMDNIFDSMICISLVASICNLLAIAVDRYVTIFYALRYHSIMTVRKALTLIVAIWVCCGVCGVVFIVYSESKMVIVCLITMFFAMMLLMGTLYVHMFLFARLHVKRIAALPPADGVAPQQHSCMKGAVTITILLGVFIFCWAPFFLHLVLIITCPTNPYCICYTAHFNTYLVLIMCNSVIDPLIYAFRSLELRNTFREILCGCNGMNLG

This assay addresses human MC3R (human, UniProt P41968 1-323). Briefly: cell-based or functional assay.
As to B1, the “MC3R cAMP (EC50)” value amounted to 4.8 nM and the “MC3R selectivity (relative to MC4R)” value came out at 937.

For B2, the “MC3R cAMP (EC50)” value was found to be 4.3 nM and the “MC3R selectivity (relative to MC4R)” value was 229.

For the molecule B3, the “MC3R cAMP (EC50)” value came out at 3.2 nM and the “MC3R selectivity (relative to MC4R)” value turned out to be 324.

On to B4, for which the “MC3R cAMP (EC50)” value turned out to be 14.3 nM and the “MC3R selectivity (relative to MC4R)” value turned out to be 213.

For B5, the “MC3R cAMP (EC50)” value came out at 2.5 nM and the “MC3R selectivity (relative to MC4R)” value worked out at 95.

As to B6, the “MC3R cAMP (EC50)” value was 12 nM and the “MC3R selectivity (relative to MC4R)” value was found to be 79.

Take B7: the “MC3R cAMP (EC50)” value came out at 3 nM and the “MC3R selectivity (relative to MC4R)” value amounted to 43.

As for B8, the “MC3R cAMP (EC50)” value came out at 6.6 nM and the “MC3R selectivity (relative to MC4R)” value amounted to 2630.

Consider B9, for which the “MC3R cAMP (EC50)” value worked out at 52.9 nM and the “MC3R selectivity (relative to MC4R)” value was determined as 535.

With B10, the “MC3R cAMP (EC50)” value is 13.4 nM and the “MC3R selectivity (relative to MC4R)” value turned out to be 3540.

For the molecule B11, the “MC3R cAMP (EC50)” value is 36 nM and the “MC3R selectivity (relative to MC4R)” value was 54.

Take B12: the “MC3R cAMP (EC50)” value was 4.8 nM and the “MC3R selectivity (relative to MC4R)” value amounted to 200.

As to B13, the “MC3R cAMP (EC50)” value was 9.8 nM and the “MC3R selectivity (relative to MC4R)” value worked out at 1260.

B14: the “MC3R cAMP (EC50)” value amounted to 26 nM and the “MC3R selectivity (relative to MC4R)” value amounted to 67.

Turning to B15, the “MC3R cAMP (EC50)” value came to 2.2 nM and the “MC3R selectivity (relative to MC4R)” value was 55.

On to B16, for which the “MC3R cAMP (EC50)” value turned out to be 2.3 nM and the “MC3R selectivity (relative to MC4R)” value turned out to be 173.

Regarding B17, the “MC3R cAMP (EC50)” value was determined as 19.4 nM and the “MC3R selectivity (relative to MC4R)” value came to 282.

Take B18: the “MC3R cAMP (EC50)” value stood at 20 nM and the “MC3R selectivity (relative to MC4R)” value is 500.

Consider B19, for which the “MC3R cAMP (EC50)” value turned out to be 26.5 nM and the “MC3R selectivity (relative to MC4R)” value worked out at 58.

On to B20, for which the “MC3R cAMP (EC50)” value came out at 2.6 nM and the “MC3R selectivity (relative to MC4R)” value is 535.

As to B21, the “MC3R cAMP (EC50)” value is 1.5 nM and the “MC3R selectivity (relative to MC4R)” value came to 83.

For the molecule B22, the “MC3R cAMP (EC50)” value came out at 2.5 nM and the “MC3R selectivity (relative to MC4R)” value came out at 93.
